# Results from publication PMC12259648.
# pKd: −log10 of the molar value.
# How the values were obtained:
# 212579 H113HY (human) = test: SPR; Biacore 1K+; antibody 212579 H113HY captured from culture supernatant without prior purification on anti-human IgG (Fc) on a CM5 chip; Phl p 5 injected at 1.875-60 nM; PBS with 0.02% Tween 20; 1:1 Langmuir model
# [1] = biological target: 212579 T40HN, I53HV, H113HY (human); test: SPR; Biacore 1K+; purified IgG captured (about 100 RU) on anti-human IgG (Fc) on a CM5 chip; Phl p 5 injected at 1.875-60 nM, 25 uL/min, 120 s, 1360 s dissociation; PBS with 0.02% Tween 20; 1:1 Langmuir model
# 212579 E38HS (human) = test: as above
# [2] = biological target: 212579 I29LV, T40LA, V108LG (human); test: as above
# [3] = biological target: 212579 T40HN, I29LV, T40LA, V108LG (human); test: as above
# [4] = biological target: 212579 T40HN, I53HV (human); test: as above
# [5] = biological target: 212579 I53HV, I29LV, T40LA, V108LG (human); test: as above
# 212579 I53HV (human) = test: as above
# 212579 T40HN (human) = test: as above
# 212579 G62HS (human) = test: as above
substance,measurement,setting,value
Phl p 5.0101 (natural protein),pKd,212579 H113HY (human),8.85
same,koff,212579 H113HY (human),0.00036 s⁻¹
same,kon,212579 H113HY (human),260000 M⁻¹ s⁻¹
same,pKd,[1],9.04
same,koff,[1],0.00014 s⁻¹
same,kon,[1],160000 M⁻¹ s⁻¹
same,pKd,212579 E38HS (human),8.00
same,koff,212579 E38HS (human),0.00273 s⁻¹
same,kon,212579 E38HS (human),280000 M⁻¹ s⁻¹
same,pKd,[2],8.82
same,koff,[2],0.00035 s⁻¹
same,kon,[2],230000 M⁻¹ s⁻¹
same,pKd,[3],8.37
same,koff,[3],0.0005 s⁻¹
same,kon,[3],120000 M⁻¹ s⁻¹
same,pKd,[4],9.25
same,koff,[4],0.00014 s⁻¹
same,pKd,[5],8.82
same,koff,[5],0.00033 s⁻¹
same,kon,[5],220000 M⁻¹ s⁻¹
same,pKd,212579 I53HV (human),9.51
same,koff,212579 I53HV (human),0.00013 s⁻¹
same,kon,212579 I53HV (human),420000 M⁻¹ s⁻¹
same,pKd,212579 T40HN (human),9.31
same,koff,212579 T40HN (human),0.00016 s⁻¹
same,kon,212579 T40HN (human),320000 M⁻¹ s⁻¹
same,pKd,212579 G62HS (human),9.57
same,koff,212579 G62HS (human),0.00011 s⁻¹
same,kon,212579 G62HS (human),420000 M⁻¹ s⁻¹
